Assay results as given in the DeepSol protein solubility set.

Test: soluble on expression in E. coli; label from the status in PepcDB or PDB records

| Sequence | soluble on expression in E. coli |
| --- | --- |
| SSESIRMVLIGPPGAGKGTQAPNLQERFHAAHLATGDMLRSQIAKGTQLGLEAKKIMDQGGLVSDDIMVNMIKDELTNNPACKNGFILVGFPRTIPQAEKLDQMLKEQGTPLEKAIELKVDDELLVARITGRLIHPASGRSYHKIFNPPKEDMKDDVTGEALVQISDDNADALKKRLAAYHAQTEPIVDFYKKTGIWAGVDASQPPATVWADILNKLGKN | soluble |
| SSFSWDNCDEGKDPAVIRSLTLEPDPIIVPGNVTLSVMGSTSVPLSSPLKVDLVLEKEVAGLWIKIPCTDYIGSCTFEHFCDVLDMLIPTGEPCPEPLRTYGLPCHCPFKEGTYSLPKSEFVVPDLELPSWLTTGNYRIESVLSSSGKRLGCIKIAASLKGI | soluble |
| SSKRKRKRSVQEGENPDDGVRGSPPEDYRLGQVASSLFRGEHHSRGGTGRLASLFSSLEPQIQPVYVPVPKQTIKKTKRNEEEESTSQIERPLSQEPAKKVKAKKKHTNAEKKLADRESALASADLEEEIHQKQGQKRKNSQPGVKVADRKILDDTEDTVVSQRKKIQINQEEERLKNERTVFVGNLPVTCNKKKLKSFFKEYGQIESVRFRSLIPAEGTLSKKLAAIKRKIHPDQKNINAYVVFKEESAATQALKRNGAQIADGFRIRVDLASETSSRDKRSVFVGNLPYKVEESAIEKHFLDCGSIMAVRIVRDKMTGIGKGFGYVLFENTDSVHLALKLNNSELMGRKLRVMRSVNKEKFKQQNSNPRLKNVSKPKQGLNFTSKTAEGHPKSLFIGEKAVLLKTKKKGQKKSGRPKKQRKQK | soluble |
| SSQPDPTPEQLNKSSQFTGVMGNLRCLYDNHFVEGTNVRSTGQLLQHDLIFPIKDLKLKNYDSVKTEFNSKDLATKYKNKDVDIFGSNYYYNCYYSEGNSCKNAKKTCMYGGVTEHHRNQIEGKFPNITVKVYEDNENILSFDITTNKKQVTVQELDCKTRKILVSRKNLYEFNNSPYETGYIKFIESSGDSFWYDMMPAPGAIFDQSKYLMLYNDNKTVSSSAIAIEVHLTKK | soluble |
| SSYCKQEGKDCIIFVTKEDHEAPSNAELVEDDPNDPYEDHGLILPNGDINWNCPCLGGMASGPCGQQFKDAFSCFHYSKEEIKGSDCVENFRGMQECMQKYPELYPQEDDNDSAPSGGANTAPTDSLPASSTDSTAAAATENPATS | soluble |
| STAIDGQGKDQVIFVTKEEHETPSTVKQEEEDTNEDPKGKGLILPTGEINWDCPCLGGMASGVCGEQFKSAFTCFHFSQEEVKGSDCLEQFISMQECFHQHPELFPQDNNDLQTADPDQEHSSSISDFTTNKESDSLPTETDEIPTQLPVVS | soluble |
| STDNTTSSDLIKNVETARSTIDGLIESLGWIELNYRCERQCNWDEVCYTPSWGPSPMGMTEPGSHNEGFGTHFDESRQRLVINSKLQCININDLMVNRNH | soluble |
| STEDLLTYTLDEAERLTGSTLGFFDLISDDQSIMRSACSSNAKKDNCGHARHPIVINFKAPADVLQKKRAIIHNDHATLRHCNSKSVSHKEAIRELIVPVIRNGKVMAILEVGNKPANYDQNDIQLLNELSGVAWDIIARKHAEDSAQKTMK | not soluble |
| STQTSRVTLVGEMLPAYNEILTPEALSFLKELHENFNERRIELLQKRMKKQQKIDAGEFPKFLEETKRIREADWTIAKLPKDLEDRRVEITGPVDRKMVINALNSGAHLFMADFEDSNSPTWENAIEGQINLRDAVKGTISHKNENGKEYRLNSKTAVLIVRPRGWHLEEKHMQVDGKNMSGSLVDFGLYFFHNAKALLEKGSGPYFYLPKMESYLEARLWNDVFVFAQKYIGIPNGTIKATVLLETIHASFEMDEILYELKDHSAGLNCGRWDYIFSFLKAFRNHNEFLLPDRAQVTMTAPFMRAYSLKVIQTCHRRNAPAIGGMAAQIPIKNNPEANEAAFEKVRADKEREALDGHDGTWVAHPGLVPVAMEVFNHIMKTPNQIFRKREEIHVTEKDLLEVPVGTITEEGLRMNISVGIQYIASWLSGRGAAPIYNLMEDAATAEISRAQVWQWIRHEGGKLNDGRNITLELMEELKEEELAKIEREIGKEAFKKGRFQEATTLFTNLVRNDEFVPFLTLPGYEIL | soluble |
| STQVSQATSQPINFQVQKDGSSEKSHMDDYMQHPGKVIKQNNKYYFQTVLNNASFWKEYKFYNANNQELATTVVNDNKKADTRTINVAVEPGYKSLTTKVHIVVPQINYNHRYTTHLEFEKAIPTLADAAK | not soluble |
| SVCAEAYNPDEEEDDAESRIIHPKTDDQRNRLQEACKDILLFKNLDPEQMSQVLDAMFEKLVKEGEHVIDQGDDGDNFYVIDRGTFDIYVKCDGVGRCVGNYDNRGSFGELALMYNTPRAATITATSPGALWGLDRVTFRRIIVKNNAKKRKMYESFIESLPFLKSLEVSERLKVVDVIGTKVYNDGEQIIAQGDSADSFFIVESGEVRITMKRKGKSDIEENGAVEIARCLRGQYFGELALVTNKPRAASAHAIGTVKCLAMDVQAFERLLGPCMEIMKRNIATYEEQLVALFGTNMDIVEPTA | soluble |
| SVHPALEFSDCYSDSPDFRERLKCYENELEKTNKFLKDVIKDGNNVINTFKEYSLAVQKFSQTLQSFQFDFIGDTLTDDEMNIAESFREFAGLLQDVEEARMMLVQNASDLLIKPLEKFRKEQIGVTKERRKKFEKESEKYYSQLDKHVNLSSKKKETQLQEADEQLDKERQAFYESSVEYVYQIQQVQEKKKFDVVEPVLAFLQSILTLNNLTVEMYTFRNKGTKCNTGEIPFQKVQFCTIQVDISTFMVHFCTFKLYFCTFKIP | soluble |
| SVMYEEDFVLNSRGMKLFTCVWKPVKQEPKALLFLCHGYAMESSITMNSAATRLANAGFAVYGMDYEGHGKSEGLNGYISNFDDLVDDVSNHYSTICEREENKGKMRFLLGESMGGAVVLLLARKKPDFWDGAVLVAPMCKLADEIKPHPVVISILIKLAKFIPTWKIVPGNDIIDIAIKEPHIRNQVRENKYCYKGRPRLNTAYQLLLVSLDLEKNLHQVSIPFIVLYGEDDKVTDKSISKMLYEVASSSDKTFKLYPKMWHALLYGETNENSEIVFGDIINWLEDRATDSNGGLESQLKHKHDGFLKHK | soluble |
| SVPLVAVVSGPRAQLFACLLRLGTQQVGPLQLHTGASHAARNHYEVLVLGGGSGGITMAARMKRKVGAENVAIVEPSERHFYQPIWTLVGAGAKQLSSSGRPTASVIPSGVEWIKARVTELNPDKNCIHTDDDEKISYRYLIIALGIQLDYEKIKGLPEGFAHPKIGSNYSVKTVEKTWKALQDFKEGNAIFTFPNTPVKCAGAPQKIMYLSEAYFRKTGKRSKANIIFNTSLGAIFGVKKYADALQEIIQERNLTVNYKKNLIEVRADKQEAVFENLDKPGETQVISYEMLHVTPPMSPPDVLKTSPVADAAGWVDVDKETLQHRRYPNVFGIGDCTNLPTSKTAAAVAAQSGILDRTISVIMKNQTPTKKYDGYTSCPLVTGYNRVILAEFDYKAEPLETFPFDQSKERLSMYLMKADLMPFLYWNMMLRGYWGGPAFLRKLFHLGMS | soluble |
| SVPQISQPHFLLDGLSSQPLFNDIAAGIPSITAYSKNGLKIEFTFERSNTNPSVTVITIQASNSTELDMTDFVFQAAVPKTFQLQLLSPSSSIVPAFNTGTITQVIKVLNPQKQQLRMRIKLTYNHKGSAMQDLAEVNNFPPQSWQ | soluble |
| SYHPLLSSSAKASADGFKPLPAIELLDRASESPTTVEIAATTTSDSCSDGARSRFQRLKVVLDLDETLVCAYETSSLPAALRNQAIEAGLKWFELECLSTDKEYDGKPKINYVTVFERPGLHEFLEQLSEFADLILFTAGLEGYARPLVDRIDTRKVLTNRLYRPSTVSTQYRDHVKDLLSTSKNMCRTVIVDNNPFSFLLQPSNGIPCIAFSAGQPNDTQLLDVILPLLKQLSEEDDVRPTLYDRFRMPEWFEKQGIPPSCWKP | soluble |
| TDPDADRLGAAVRMPNGDYQVLTGNQLGSIMIHYILEAHQQAGTLPQNAAVLKSIVSSELATAIAEKCNTKMFNVLTGFKFIAEKIQQYEEDHSQTFMFGFEESYGYLVKPFVRDKDAIQALVLLAEVAAFYKKQGKTLYDGLQDIFEEFGYFEE | not soluble |
| TDPDCDRIGVLVKNKSGEYKVLTGNQTGVLLTHYIISSLKDTGKLPANGAVIKTIVTSEMTRKITEDYDMKLIDVLTGFKYIGEKIKEFEETNSNTYLFGFEESYGCLAGTFVRDKDAVVAATLVCEMALYYKNKGLSLDDALNELYEKYGF | not soluble |
| TDTDEVINLRVVETTDIHTNLMDYDYYKDKPTQKIGLARTATLVKEARAEVTNSVLVDNGDLLQGSPMGDYMADKGIEAGEVHPAYKAMNQLDYDAGNIGNHEFNYGLEFLAESINDADFPYISANVYDAKTKEHYFKPYIIKTHKLKDTAGVEHEIKVGYIGFVPPQIMVWDKKNLEGKVFARDIKETAEELVPQMKAEGADVIVAIPHSGVSTNPYKQGEENSTYYLSEVDGIDAIAFGHSHAVFPGKGFDNLQGIDNENGTINGVAAVMPGRWGSHVGVMDLTLEQKDGKWSVVKGQSEARPIFDKTNQKSLADADKGIVQALEADHKGTRDFVNQ | not soluble |
| TESGTAAQDPEALAAEIGPVKQVSLGEQIDAALAQQGEQLFNTYCTACHRLDERFIGPALRDVTKRRGPVYIMNVMLNPNGMIQRHPVMKQLVQEYGTMMTDMALSEEQARAILEYLRQVAENQ | soluble |
| TFRLVIACPDGVGIVAKVSNFLATYNGWITEASHHSDNDNGWFFMRHEIRADSLPFDLDGFRQAFAPIAREFSMEWRITDSEVKKRVVLMASKESHCLADLLHRWHSGELDCEIPCVIANHDDLRSMVEWHGIPYFHVPVDPQDKQPAFDEVSRLIDEHGADCIVLARYMQILPPDLCRKYAHQVINIHHSFLPSFIGAKPYHQASKRGVKLIGATSHYVTEELDAGPIIEQDVVRVTHRDNVEDMVRLGKDVEKLVLARGLRYHLEDRVLVH | not soluble |
| TGKVHWSDELFNIFGRDPQKSAANYEELLNYIHPDDRDFVDGIIRNSFTGKRYGIDYRIIRDNGEERTVHAEKELIFDRN | not soluble |
| THILTLTSGFHLWSHTENSGKKSKIIAVHGGPGETHESFETLPLGVPNAEITSYDQLGSWYSDQPDFSDPKLAKKYLRIEYFVNELEEVRRQLEYDKFILLGYSWGAMIALEYALKYPGNLDKLVIVGMSDRESDFTDRMKDEVAKVLSKDEAKYVFTEAKKGELDDPLFNQFMEKFYNDYYSRFSKSQSKHAIDISNYQVANYMMGTNPFHTEGMMSGWNVSDKLYRIKTPTLILVGDQDMISPKKARVMADKLPNGKLEIIPDATHVSLRDNPEYFFQQLNQFLTN | not soluble |
| TIDEINKAISSSLSRERIMETAMAQVERITGCEFVAILQAENGGLKVMSSHASGLEIPAALRPGAPLSLAGCTAWTAFRTGRSASIADLADTRKPGTVSRTLLAAGIRSLLAIPLMSRDQVKGVLLLGDTEPDKFARGETFTIEKIASQMAVALENARLYEDMR | not soluble |
| TIEIYKNKIPDGKNAGKDAILIKDNNLIKQLEDAAKKNGAESNQKQGGESNVQKEQIIGYTTTGNVREDGNHIFRVDKINDEQYDRKIIVGVTVETLEQSSTLQSEEAIVLAAPGKYKSTDKKKVTITQGPNIIGIHANEKENAETQKFVDW | soluble |
| TKDFSWNSDFIFSHAKNEVTDLRGRTRMMELVSGNGFAREGYPVRGLFSIPFAGLDEKGIPMFDINGNITSTDINFQEREKLDYLKYEGPTDPTITGSFGNVFAYKGFKLNVFMTYSFGNVVRLNPYFNYKYSDLSAMPREFKNRWTLSGDEAKTNIPAILSNPQYEANRTLYKAYNAYNYSTERIAKGDFIRMKEISLSYEFPKSWISAAKISNLSLKLQATNLFLIYADKKLNGQDPEFFNTGGVASPVPRQFTLTLRLGL | not soluble |
